Patent US20220289850 (published 2022)

T1: cynomolgus integrin avb8 (cynomolgus)
T1 chain 1: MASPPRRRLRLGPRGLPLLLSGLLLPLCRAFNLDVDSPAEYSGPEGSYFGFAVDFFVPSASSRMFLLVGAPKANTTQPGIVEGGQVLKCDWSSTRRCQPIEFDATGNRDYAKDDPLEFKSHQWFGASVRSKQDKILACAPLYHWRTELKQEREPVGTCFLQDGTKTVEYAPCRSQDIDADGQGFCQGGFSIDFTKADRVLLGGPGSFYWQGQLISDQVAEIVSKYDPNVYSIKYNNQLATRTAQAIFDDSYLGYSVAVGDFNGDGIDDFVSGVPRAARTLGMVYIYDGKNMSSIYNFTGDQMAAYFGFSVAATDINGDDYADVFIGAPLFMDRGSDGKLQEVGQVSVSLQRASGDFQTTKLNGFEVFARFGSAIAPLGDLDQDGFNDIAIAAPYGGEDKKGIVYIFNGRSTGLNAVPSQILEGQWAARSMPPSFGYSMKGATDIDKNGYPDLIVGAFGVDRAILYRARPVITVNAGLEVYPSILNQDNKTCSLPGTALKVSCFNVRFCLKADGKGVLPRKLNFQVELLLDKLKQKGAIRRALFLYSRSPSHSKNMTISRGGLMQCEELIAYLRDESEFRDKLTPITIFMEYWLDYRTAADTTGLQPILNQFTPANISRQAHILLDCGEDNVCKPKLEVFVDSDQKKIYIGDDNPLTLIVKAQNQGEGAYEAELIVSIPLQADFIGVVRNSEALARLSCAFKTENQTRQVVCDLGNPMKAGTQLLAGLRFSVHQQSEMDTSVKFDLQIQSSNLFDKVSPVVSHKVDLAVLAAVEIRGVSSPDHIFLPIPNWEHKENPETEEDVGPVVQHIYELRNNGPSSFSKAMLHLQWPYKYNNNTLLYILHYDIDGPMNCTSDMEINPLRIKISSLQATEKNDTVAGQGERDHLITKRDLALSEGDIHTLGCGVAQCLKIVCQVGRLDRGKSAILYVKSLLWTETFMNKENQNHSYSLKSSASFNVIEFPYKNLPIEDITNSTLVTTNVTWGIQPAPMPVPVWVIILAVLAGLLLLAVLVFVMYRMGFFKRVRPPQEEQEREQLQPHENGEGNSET
T1 chain 2: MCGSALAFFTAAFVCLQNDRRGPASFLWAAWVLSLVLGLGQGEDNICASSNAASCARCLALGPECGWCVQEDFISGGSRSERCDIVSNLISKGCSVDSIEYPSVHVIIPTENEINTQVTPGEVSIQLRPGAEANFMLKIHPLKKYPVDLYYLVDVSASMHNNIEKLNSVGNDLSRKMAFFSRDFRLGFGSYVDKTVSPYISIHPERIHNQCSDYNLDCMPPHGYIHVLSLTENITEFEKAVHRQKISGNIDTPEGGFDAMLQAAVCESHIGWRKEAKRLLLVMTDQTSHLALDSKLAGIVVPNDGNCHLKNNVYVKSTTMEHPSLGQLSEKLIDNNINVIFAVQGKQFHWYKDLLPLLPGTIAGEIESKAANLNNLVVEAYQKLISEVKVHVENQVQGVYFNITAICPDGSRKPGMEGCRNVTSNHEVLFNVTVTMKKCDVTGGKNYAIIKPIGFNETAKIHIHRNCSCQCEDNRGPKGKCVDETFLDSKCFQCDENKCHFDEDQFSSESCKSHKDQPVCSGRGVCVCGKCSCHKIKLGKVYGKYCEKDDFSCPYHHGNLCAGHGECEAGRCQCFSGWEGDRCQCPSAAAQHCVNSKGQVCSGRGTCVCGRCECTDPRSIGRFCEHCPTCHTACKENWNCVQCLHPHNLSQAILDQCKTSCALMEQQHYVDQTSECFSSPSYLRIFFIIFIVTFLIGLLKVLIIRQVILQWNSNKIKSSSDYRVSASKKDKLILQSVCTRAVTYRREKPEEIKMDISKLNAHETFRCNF


Biological target: T1, cynomolgus integrin avb8
Test: SPR 25C

Row | Binder | Kd [nM]
1 | ADWA11 VH05/VK01 (VH05-2_VK01) Fab (antibody, V domains shown) VH: EVQLVESGGGLVQPGGSLRLSCAASGFNIKDYYMNWVRQAPGKGLEWVGWIDPDNGNTIYDPKFQGRFTISADTSKNSAYLQMNSLRAEDTAVYYCARRLLMDYWGQGTLVTVSS VL: DIQMTQSPSSLSASVGDRVTITCRSTKSLLHFNGNTYLFWYQQKPGKAPKRLIYYMSNLASGVPSRFSGSGSGTDFTLTISSLQPEDFATYYCMQSLEYPFTFGQGTKVEIK | < 0.1
2 | Mouse hybridoma ADWA-11 Fab (antibody, V domains shown) VH: EVQLQQSGAELVRPGAFVKLSCKASGFNIKDYYMNWVLQRPEQGLEWIGWIDPDNGNTIYDPKFQGKASITADTSSNTAYLQLSSLTSEDTAVYYCARRLLMDYWGQGTSVTVSS VL: DIVMTQAAPSVPVTPGESVSISCRSTKSLLHFNGNTYLFWFLQRPGQSPQRLIYYMSNLASGVPDRFSGRGSGTDFTLRISRVEAEDVGVYYCMQSLEYPFTFGTGTKLEIK | 0.507
3 | ADWA11 2.4 Fab (antibody, V domains shown) VH: EVQLVESGGGLVQPGGSLRLSCAASGFNIKDYYMNWVRQAPGKGLEWVGWIDPDQGNTIYEPKFQGRFTISADTSKNSAYLQMNSLRAEDTAVYYCARRLLMDYWGQGTLVTVSS VL: DIQMTQSPSSLSASVGDRVTITCRSTKSLSHFNGNTYLFWYQQKPGKAPKRLIYYMSSLASGVPSRFSGSGSGTDFTLTISSLQPEDFATYYCQQSLEYPFTFGGGTKVEIK | < 0.2
